# Data from PMC12416549 (2024).
# Positions count from the first letter of the chain named. In names and notes the source's numbering stands.
# T1: TNFR1 (Homo sapiens, UniProt P19438)
# T1 chain: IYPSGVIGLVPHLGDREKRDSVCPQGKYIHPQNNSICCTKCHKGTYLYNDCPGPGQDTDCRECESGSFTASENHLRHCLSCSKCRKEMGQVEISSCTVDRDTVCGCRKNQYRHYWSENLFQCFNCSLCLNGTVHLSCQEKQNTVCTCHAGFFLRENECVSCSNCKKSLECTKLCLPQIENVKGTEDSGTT
# B1: E92Y (designed binder)
# chain: SMEEEVEKAAKEYEKKKKEAIEKHLEKLKAKDKEAAERFLKELEEAAKEYAKDEAKTMSEEEAKRRAKKYKEKVLLSELSEEEQKEIKEAEYKLVRTILKYVEEAAK
# B2: L43S (designed binder)
# chain: B1 chain with L43S, Y92E
# B3: A55L (designed binder)
# chain: B1 chain with A55L, Y92E
# B4: A106W (designed binder)
# chain: B1 chain with Y92E, A106W
# B5: Q84N (designed binder)
# chain: B1 chain with Q84N, Y92E
# B6: K71T (designed binder)
# chain: B1 chain with K71T, Y92E
# B7: E92C (designed binder)
# chain: B1 chain with Y92C
# B8: L79Y (designed binder)
# chain: B1 chain with L79Y, Y92E
# B9: V74G (designed binder)
# chain: B1 chain with V74G, Y92E
# B10: K27M (designed binder)
# chain: B1 chain with K27M, Y92E
# B11: I87G (designed binder)
# chain: B1 chain with I87G, Y92E
# B12: E37R (designed binder)
# chain: B1 chain with E37R, Y92E
# B13: V102M (designed binder)
# chain: B1 chain with Y92E, V102M
# B14: M2G (designed binder)
# chain: B1 chain with M2G, Y92E
# B15: E83H (designed binder)
# chain: B1 chain with E83H, Y92E
# B16: K48R (designed binder)
# chain: B1 chain with K48R, Y92E
# B17: A63T (designed binder)
# chain: B1 chain with A63T, Y92E
# B18: E12C (designed binder)
# chain: B1 chain with E12C, Y92E
# B19: K93C (designed binder)
# chain: B1 chain with Y92E, K93C
# B20: E82H (designed binder)
# chain: B1 chain with E82H, Y92E
# B21: D32G (designed binder)
# chain: B1 chain with D32G, Y92E
# B22: H24V (designed binder)
# chain: B1 chain with H24V, Y92E
# B23: E78M (designed binder)
# chain: B1 chain with E78M, Y92E
# B24: E19R (designed binder)
# chain: B1 chain with E19R, Y92E
# B25: Y50W (designed binder)
# chain: B1 chain with Y50W, Y92E
# B26: I98H (designed binder)
# chain: B1 chain with Y92E, I98H
# B27: K27N (designed binder)
# chain: B1 chain with K27N, Y92E
# B28: K68F (designed binder)
# chain: B1 chain with K68F, Y92E
# B29: K68E (designed binder)
# chain: B1 chain with K68E, Y92E
# B30: K16Q (designed binder)
# chain: B1 chain with K16Q, Y92E
# B31: R66K (designed binder)
# chain: B1 chain with R66K, Y92E
# B32: S77P (designed binder)
# chain: B1 chain with S77P, Y92E
# B33: A105M (designed binder)
# chain: B1 chain with Y92E, A105M
# B34: E5W (designed binder)
# chain: B1 chain with E5W, Y92E
# B35: L76K (designed binder)
# chain: B1 chain with L76K, Y92E
# B36: A35Y (designed binder)
# chain: B1 chain with A35Y, Y92E
# B37: D32M (designed binder)
# chain: B1 chain with D32M, Y92E
# B38: E54A (designed binder)
# chain: B1 chain with E54A, Y92E
# B39: K31R (designed binder)
# chain: B1 chain with K31R, Y92E
# B40: A67M (designed binder)
# chain: B1 chain with A67M, Y92E
# B41: K85H (designed binder)
# chain: B1 chain with K85H, Y92E
# B42: A30W (designed binder)
# chain: B1 chain with A30W, Y92E
# B43: S77C (designed binder)
# chain: B1 chain with S77C, Y92E
# Biological target: T1, TNFR1
# Assay: yeast display SC50
row,apparent Kd (screen) [nM],Binder
1,13.8,B1
2,0.49,B2
3,0.593,B3
4,0.368,B4
5,2.48,B5
6,0.49,B6
7,6.43,B7
8,12.5,B8
9,1.05,B9
10,1.05,B10
11,13.8,B11
12,0.446,B12
13,0.49,B13
14,0.446,B14
15,1.27,B15
16,0.593,B16
17,16.7,B17
18,0.956,B18
19,1.54,B19
20,0.446,B20
21,0.593,B21
22,1.05,B22

row,apparent Kd (screen) [nM],Binder
1,0.956,B23
2,0.446,B24
3,7.07,B25
4,5.84,B26
5,0.653,B27
6,3,B28
7,1.4,B29
8,0.718,B30
9,10.4,B31
10,11.4,B32
11,3,B33
12,0.539,B34
13,3.3,B35
14,1.27,B36
15,5.84,B37
16,3.63,B38
17,0.49,B39
18,7.78,B40
19,0.869,B41
20,0.593,B42
21,1.54,B43
